Laboratory results taken from patent US20080233137A1 (published 2008).

Assays:
[1] = molecular target: T1, WT-CHIPS (CHIPS 1-121), CHemotaxis Inhibitory Protein from Staphylococcus aureus (Staphylococcus aureus (strain Newman), UniProt A6QIG7 29-149); assay: flow cytometry, 3 ug/ml CHIPS-FITC on HEK-293 cells displaying the C5aR N-terminus (pDISPLAY)
T1 construct: mature

[2] = molecular target: T1, WT-CHIPS (CHIPS 1-121), CHemotaxis …; assay: flow cytometry, 3 ug/ml CHIPS-FITC on HEK-293 cells expressing FLAG-tagged C5aR (pcDNA3.1)

Binder	binding result [1]	binding result [2]
MNSFNYTTPDYGHYDDKDTLDLNTPVDKTSNTLRVPDI (receptor, domain: transmembrane domain; also called C5aR N-terminal protein; pDISPLAY C5aR N-terminal protein)	binds	–
FLAG-tagged complete human C5aR expressed on HEK293 cells (pcDNA3.1) (receptor, also called whole C5aR; complete C5aR) MDYKDDDDKNSFNYTTPDYGHYDDKDTLDLNTPVDKTSNTLRVPDILALVIFAVVFLVGVLGNALVVWVTAFEAKRTINAIWFLNLAVADFLSCLALPILFTSIVQHHHWPFGGAACSILPSLILLNMYASILLLATISADRFLLVFKPIWCQNFRGAGLAWIACAVAWGLALLLTIPSFLYRVVREEYFPPKVLCGVDYSHDKRRERAVAIVRLVLGFLWPLLTLTICYTFILLRTWSRRATRSTKTLKVVVAVVASFFIFWLPYQVTGIMMSFLEPSSPTFLLLNKLDSLCVSFAYINCCINPIIYVVAGQGFQGRLRKSLPSLLRNVLTEESVVRESKSFTRSTVDTMAQKTQAV	–	binds
